In the Immune Epitope Database (IEDB):

Each sequence was assayed against HLA-A*02:01 (assay: IEDB peptide-MHC binding, purified MHC/competitive/radioactivity; ≥ and ≤ were set here for values at or beyond the usual limits of such assays). Conditions: source organism: Human alphaherpesvirus 1.

Question: For RLPLYEALV, which IC50 is on record?
Answer: 95 nM

Question: For RLPPHTQPV, which IC50 is on record?
Answer: 31 nM

Question: Which IC50 does the source give for RLPRYLACL here?
Answer: 76 nM

Question: RLQEALAVV was tested. Which IC50 did it give?
Answer: 6.6 nM

Question: How did the IC50 turn out when RLQFGPPPV was run?
Answer: 11 nM

Question: How did the IC50 turn out when RLQHLVAEI was run?
Answer: 142 nM

Question: For RLQTYLTDI, which IC50 is on record?
Answer: 827 nM

Question: RLSPFPALV was tested. Which IC50 did it give?
Answer: 60 nM

Question: For RLTEDDFGL, which IC50 is on record?
Answer: 77 nM

Question: How did the IC50 turn out when RLTGVTSLV was run?
Answer: 13 nM

Question: With RLTGYPAGI as the sequence, how does the IC50 read?
Answer: 1100 nM

Question: For RLVDGVGGI, which IC50 is on record?
Answer: 217 nM

Question: With RLVVVGWFL as the sequence, how does the IC50 read?
Answer: 865 nM

Question: Which IC50 does the source give for RLYRWQPDL here?
Answer: 916 nM

Question: For RMFGMPTAL, which IC50 is on record?
Answer: 5.5 nM

Question: RMGELTAEI was tested. Which IC50 did it give?
Answer: 91 nM

Question: For RMLGDVMAV, which IC50 is on record?
Answer: 1.7 nM

Question: Which IC50 does the source give for RMWAWIHGL here?
Answer: 61 nM

Question: How did the IC50 turn out when RTAWWVWCV was run?
Answer: 26 nM

Question: For RVYNIIQLV, which IC50 is on record?
Answer: 19700 nM

Question: With SEEEGNFYV as the sequence, how does the IC50 read?
Answer: 19200 nM

Question: How did the IC50 turn out when SLDAKQWSV was run?
Answer: 7.5 nM

Question: SLFDCIVPV was tested. Which IC50 did it give?
Answer: 0.17 nM

Question: With SLLALNEAL as the sequence, how does the IC50 read?
Answer: 54 nM

Question: Which IC50 does the source give for SLLDSLLVM here?
Answer: 76 nM

Question: With SLLLVVEGV as the sequence, how does the IC50 read?
Answer: 8.8 nM

Question: For SLLSLEHTL, which IC50 is on record?
Answer: 55 nM

Question: With SLLWLGAGV as the sequence, how does the IC50 read?
Answer: 54 nM

Question: SLMNVDAAV was tested. Which IC50 did it give?
Answer: 9.7 nM

Question: Which IC50 does the source give for SLNARGLLV here?
Answer: 145 nM

Question: With SLQQELAHM as the sequence, how does the IC50 read?
Answer: 71 nM

Question: How did the IC50 turn out when SLRNVLAAV was run?
Answer: 5.4 nM

Question: SLSTYTVPI was tested. Which IC50 did it give?
Answer: 13 nM

Question: For SLYDVEFDA, which IC50 is on record?
Answer: 9.7 nM

Question: Which IC50 does the source give for SMDDDTYVA here?
Answer: 546 nM

Question: How did the IC50 turn out when SMFASCNLL was run?
Answer: 29 nM

Question: SPGGFVQFV was tested. Which IC50 did it give?
Answer: 450 nM

Question: Which IC50 does the source give for SQLAHLVYV here?
Answer: 62 nM

Question: For SQTQPPAPV, which IC50 is on record?
Answer: 781 nM

Question: Which IC50 does the source give for SVYALGFGV here?
Answer: 1300 nM

Question: TIHCFFFAV was tested. Which IC50 did it give?
Answer: 108 nM

Question: For TISKPSEAV, which IC50 is on record?
Answer: 4780 nM

Question: How did the IC50 turn out when TLIPRLFAL was run?
Answer: 35 nM

Question: Which IC50 does the source give for TLLDFAHGL here?
Answer: 10 nM

Question: How did the IC50 turn out when TLLDQNNAL was run?
Answer: 39 nM

Question: TLLELVVSV was tested. Which IC50 did it give?
Answer: 1.8 nM

Question: Which IC50 does the source give for TLLRLACEV here?
Answer: 65 nM

Question: How did the IC50 turn out when TLRDTIPDC was run?
Answer: 1390 nM

Question: Which IC50 does the source give for TLRGLFFSV here?
Answer: 94 nM

Question: Which IC50 does the source give for TLSGMGYYL here?
Answer: 148 nM

Question: With TMLEDHEFV as the sequence, how does the IC50 read?
Answer: 118 nM

Question: For TMRDDLPLV, which IC50 is on record?
Answer: 61 nM

Question: Which IC50 does the source give for VIACLLVAV here?
Answer: 205 nM

Question: For VILPACAFV, which IC50 is on record?
Answer: 6.2 nM

Question: Which IC50 does the source give for VLAAGVLVV here?
Answer: 234 nM

Question: VLAAVLLGA was tested. Which IC50 did it give?
Answer: 52 nM

Question: For VLADAINGL, which IC50 is on record?
Answer: 86 nM

Question: With VLADDVYPL as the sequence, how does the IC50 read?
Answer: 2.4 nM

Question: Which IC50 does the source give for VLANFCSAL here?
Answer: 14 nM

Question: Which IC50 does the source give for VLCGIAWYV here?
Answer: 7.9 nM

Question: For VLDCVVTGA, which IC50 is on record?
Answer: 973 nM

Question: Which IC50 does the source give for VLDEVMSTL here?
Answer: 45 nM

Question: Which IC50 does the source give for VLFSGPSPL here?
Answer: 7.9 nM

Question: Which IC50 does the source give for VLGAAIWWV here?
Answer: 73 nM

Question: VLGAAVYAL was tested. Which IC50 did it give?
Answer: 100 nM

Question: With VLGCDAALV as the sequence, how does the IC50 read?
Answer: 521 nM

Question: For VLLEKAPPL, which IC50 is on record?
Answer: 24 nM

Question: Which IC50 does the source give for VLLGAPVVV here?
Answer: 14 nM

Question: VLMDGHTGM was tested. Which IC50 did it give?
Answer: 136 nM

Question: VLNTLMFMV was tested. Which IC50 did it give?
Answer: 14 nM

Question: Which IC50 does the source give for VLPATFAAV here?
Answer: 11 nM

Question: VLTEPLCQV was tested. Which IC50 did it give?
Answer: 71 nM

Question: How did the IC50 turn out when VLVVQPAPV was run?
Answer: 112 nM

Question: How did the IC50 turn out when VLWSLLWLG was run?
Answer: 1.4 nM

Question: How did the IC50 turn out when VMAARPMVV was run?
Answer: 266 nM

Question: With VMAAVCLQI as the sequence, how does the IC50 read?
Answer: 15 nM

Question: For VTFDTLFMV, which IC50 is on record?
Answer: 8.7 nM

Question: With VTTDSVRAL as the sequence, how does the IC50 read?
Answer: 5350 nM

Question: VVTAIVYVV was tested. Which IC50 did it give?
Answer: 265 nM

Question: With WLETELVFV as the sequence, how does the IC50 read?
Answer: 85 nM

Question: For WLLQITVLL, which IC50 is on record?
Answer: 130 nM

Question: YFHALVYFV was tested. Which IC50 did it give?
Answer: 133 nM

Question: For YIFSYDAYT, which IC50 is on record?
Answer: 310 nM

Question: YILNKPVFI was tested. Which IC50 did it give?
Answer: 52 nM

Question: YLACELLPA was tested. Which IC50 did it give?
Answer: 4.7 nM

Question: With YLACLAAVI as the sequence, how does the IC50 read?
Answer: 61 nM

Question: For YLALLEACL, which IC50 is on record?
Answer: 7.5 nM

Question: YLANGGFLI was tested. Which IC50 did it give?
Answer: 0.56 nM

Question: Which IC50 does the source give for YLARAAGLV here?
Answer: 210 nM

Question: YLATGALLA was tested. Which IC50 did it give?
Answer: 55 nM

Question: With YLCDNFCPA as the sequence, how does the IC50 read?
Answer: 27 nM

Question: How did the IC50 turn out when YLCPVLVFV was run?
Answer: 9.5 nM

Question: How did the IC50 turn out when YLCSLAVVL was run?
Answer: 17 nM

Question: With YLDEAGGHL as the sequence, how does the IC50 read?
Answer: 23 nM

Question: With YLGAFLSVL as the sequence, how does the IC50 read?
Answer: 16 nM

Question: YLLEQLNNL was tested. Which IC50 did it give?
Answer: 5.7 nM

Question: How did the IC50 turn out when YLLGRPPNA was run?
Answer: 12 nM

Question: How did the IC50 turn out when YLLNYAGRI was run?
Answer: 194 nM

Question: With YLREYVTRL as the sequence, how does the IC50 read?
Answer: 115 nM

Question: Which IC50 does the source give for YLSEEMMEL here?
Answer: 6.3 nM

Question: With YLSRTQRLA as the sequence, how does the IC50 read?
Answer: 110 nM

Question: With YMAKLHAYL as the sequence, how does the IC50 read?
Answer: 11 nM

Question: For YTFWRLDLV, which IC50 is on record?
Answer: 30 nM

Question: For YVLHFACLV, which IC50 is on record?
Answer: 7.6 nM

Question: YVLNSQIAV was tested. Which IC50 did it give?
Answer: 121 nM

Question: How did the IC50 turn out when YVPPDMRGV was run?
Answer: 511 nM
